Test system: differentiated cellular BBB model
Assay: Study B: permeability of the nanobodies and conjugates through differentiated cellular BBB model (ELISA)
Format: in vitro ADME, rats
Conditions: samples at 60 and 120 min, FIG. 7
Protocol: Cerebral microvessel endothelial cells prepared from 5-week-old male rats were seeded on microporous filters in order to: • evaluate the toxicity of the nanobodies and conjugates during their transfer by kinetic measurement of the sucrose transfer. • evaluate the permeability of the nanobodies and conjugates in the blood/brain direction. Experimental Conditions: • The endothelial cells were seeded on 28 Transwell Polycarbonate filters (porosity 0.4 μm and diameter 12 mm), and cultured in differentiation medium. • The measurement of toxicity (study A) or permeability (study B) of the nanobodies and conjugates was carried out in HBSS Ca/Mg medium supplemented with 0.1% BSA.
For study B, the medium collected at 60 min basolaterally was replaced by the same volume of fresh medium.
The samples collected at 60 and 120 min were analyzed by ELISA test to evaluate the quantity of nanobodies and conjugates which passed during study B. To be able to analyze the different samples by ELISA, it was necessary to first purify them to remove BSA limiting adhesion to 96-well plates of ELISA test. Thanks to the polyhistidine label present on the 3 nanobodies and conjugates, purifications on a 96-well plate coated with Nickel-NTA were carried out. […]
An absorbance reading was carried out at 450 nm after stopping the colorimetric reaction using a 1 N HCl solution. […]

B1: 2C5: anti-Tau nanobody (VHH, SEQ ID NO: 3) detecting pathological oligomeric forms of Tau protein (protein)
VHH: QVQLVQSGGGLVQAGGSLRLSCAASGRTFSSDTLAWFRQAPGKEREFVASISPSGGVTYYEDSVKGRFTISRDNSKNTVLLQMNSLTPEDTAVYYCNRDPKYGNTRYWGQGTQVTVSSAAA
- passage through the BBB model (blood/brain direction): not passing this model

Source: US12466854B2, “Peptide useful for the transport of molecules through cell barriers” (UNIVERSITÉ GRENOBLE ALPES, priority 2022, dated 2025)
